Like-named read-outs stand apart in the source and are kept apart here. Blank lines part the entries; values can stand above or below the binder they belong to. Where no end group is shown, it is not given here.
Legend:
Experiment in all cases: cell-based or functional assay
[1] = biological target: T1, Adrenomedullin 1-52-Gly (ADM-Gly) (human, not fully specified)
T1 peptide: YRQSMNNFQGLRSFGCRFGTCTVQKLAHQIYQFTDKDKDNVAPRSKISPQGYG

[2] = biological target: T2, human recombinant adrenomedullin receptor (CRLR+RAMP3) (human)
T2 sequence (Q16602 whole entry, chain 1 of 2): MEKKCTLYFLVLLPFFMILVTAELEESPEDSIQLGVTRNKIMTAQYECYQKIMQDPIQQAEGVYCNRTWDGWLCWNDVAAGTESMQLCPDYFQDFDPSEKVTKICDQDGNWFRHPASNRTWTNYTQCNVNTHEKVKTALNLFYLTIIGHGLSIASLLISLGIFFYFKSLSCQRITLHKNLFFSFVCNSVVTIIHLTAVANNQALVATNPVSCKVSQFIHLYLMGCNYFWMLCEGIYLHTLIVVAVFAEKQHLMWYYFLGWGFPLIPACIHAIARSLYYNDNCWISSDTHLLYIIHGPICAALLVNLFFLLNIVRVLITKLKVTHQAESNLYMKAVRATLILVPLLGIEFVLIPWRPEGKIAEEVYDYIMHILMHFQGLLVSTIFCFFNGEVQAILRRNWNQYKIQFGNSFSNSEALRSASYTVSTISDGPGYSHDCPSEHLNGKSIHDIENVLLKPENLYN
T2 sequence (O60896 whole entry, chain 2 of 2, further chain): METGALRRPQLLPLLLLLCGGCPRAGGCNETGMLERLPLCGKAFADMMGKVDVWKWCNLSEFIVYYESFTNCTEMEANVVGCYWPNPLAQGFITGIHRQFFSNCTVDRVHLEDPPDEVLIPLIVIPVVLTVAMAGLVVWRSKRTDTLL

[3] = biological target: T2, human recombinant adrenomedullin …; remark: listed apart in the source

formation of bio-ADM from ADM-Gly by native human plasma PAM after 90 minutes, with 300 µg/mL HAM8101 against without [1]: 4 fold
B1: HAM8101 (antibody, human IgG1, kappa, V domains shown)
VH: QVQLVQSGAEVKKPGSSVKVSCKASGYTFSRYWIEWVRQAPGQGLEWIGEILPGSGSTNYNQKFQGRVTITADTSTSTAYMELSSLRSEDTAVYYCTEGYEYDGFDYWGQGTTVTVSS
VL: DVVLTQSPLSLPVTLGQPASISCRSSQSIVYSNGNTYLEWYLQRPGQSPRLLIYRVSNRFSGVPDRFSGSGSGTDFTLKISRVEAEDVGVYYCFQGSHIPYTFGGGTKLEIKR

EC50 (read off the curve), cAMP stimulation [2]: ~1 nM
B2: mature human Adrenomedullin (Human ADM 1-52) (peptide)
peptide: YRQSMNNFQGLRSFGCRFGTCTVQKLAHQIYQFTDKDKDNVAPRSKISPQGY-NH2
modifications: ends and bridges not checked

EC50 (read off the curve), cAMP stimulation [3]: ~0.08 nM
Binder: YRQSMNQGSRSNGCRFGTCTFQKLAHQIYQLTDKDKDGMAPRNKISPQGY-NH2 (ends and bridges not checked) [Mouse ADM 1-50]

— patent US12662530 (SPHINGOTEC, dated 2026)
